The source of these data is US20250147051A1 (GTINVENT, published 2025).

Test [1] deals with T1, full length human tau protein 2N4R (hT40) (human, UniProt P10636 1-758).
T1 construct: recombinant protein; also called T441
Briefly: sandwich ELISA, S1D12 mAb capture, colourimetric detection. The procedure:
(§1) Full length tau (hT40), at 1 μg/ml starting concentration was added to designated wells and double diluted across rest of the plates and left to incubate at R/T for 1 h. A series of detection scAbs with varying epitope recognition properties were added at 10 μg/ml to designated wells (FIG. 22). For colourimetric detection HRP conjugated anti-HuCk secondary antibody was used and the resulting immunoreaction was developed and absorbance at 450 nm measured as described previously. Cut-off point for a positive binding event was an absorbance value of 0.3 following background subtraction. In order to enhance the assay sensitivity, a chemiluminescent detection method was adopted where 50 μL SuperSignal ELISA Femto Substrate (Thermo Scientific) was added to each well following incubation with anti-HuCK HRP antibody and subsequent washing. The luminescence was read using Clariostar Plus microplate reader. A further modification to this protocol was done where various detection scAbs were directly conjugated with HRP and detected using chemiluminescent protocol as before.

The target in test [2] is T1, full length human tau protein 2N4R …. The test can be described thus: sandwich ELISA, S1D12 mAb capture, chemiluminescence detection. The procedure: as §1
(In general: In an ELISA, binding on a coated surface is turned into a signal by an enzyme label.)

The target in test [3] is T2, human tau 296-390 (Line 1 transgene fragment) (human, UniProt P10636 613-707).
T2 construct: also called L1 fragment; 10-kDa tau fragment
T2 sequence (P10636 613-707): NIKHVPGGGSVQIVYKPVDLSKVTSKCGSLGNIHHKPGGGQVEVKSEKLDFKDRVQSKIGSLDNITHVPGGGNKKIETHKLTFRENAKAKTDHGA
Briefly: Western blot of brain homogenates. In general terms: Immunoblotting shows a protein as a band on a membrane.

Test [4] deals with T3, mouse tau (Isoform Tau-A) (mouse, UniProt P10637 2-733).
T3 construct: endogenous protein in mouse brain homogenate or plasma; isoform in the samples not determined; also called endogenous mouse tau
T3 sequence (P10637 other isoform, or with tags, fused parts or gaps limits assumed): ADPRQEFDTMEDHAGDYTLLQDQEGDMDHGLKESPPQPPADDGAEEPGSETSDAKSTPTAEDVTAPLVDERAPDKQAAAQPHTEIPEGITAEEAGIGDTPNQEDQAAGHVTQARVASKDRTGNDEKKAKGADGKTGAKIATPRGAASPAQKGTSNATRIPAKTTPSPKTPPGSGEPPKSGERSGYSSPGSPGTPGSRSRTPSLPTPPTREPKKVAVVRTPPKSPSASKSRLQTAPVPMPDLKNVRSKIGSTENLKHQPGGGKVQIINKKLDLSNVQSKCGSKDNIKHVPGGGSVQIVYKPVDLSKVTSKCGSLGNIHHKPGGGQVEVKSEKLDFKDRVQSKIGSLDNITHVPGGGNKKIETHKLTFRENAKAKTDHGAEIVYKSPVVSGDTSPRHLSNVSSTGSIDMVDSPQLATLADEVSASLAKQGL
The test can be described thus: Western blot of brain homogenates.

Test [5] concerns the target T1, full length human tau protein 2N4R …. Briefly: direct ELISA, coated hT40.
For test [6] the target is unchanged. The test can be described thus: direct ELISA, coated hT40. This is another data set of the same source.
The target in test [7] is T4, DGAE + LMT Agg.
T4 construct: also called dGAE agitated in the presence of LMTM (Total, Supernatant, Pellet)
T4 sequence (fragment, as listed by the source limits assumed): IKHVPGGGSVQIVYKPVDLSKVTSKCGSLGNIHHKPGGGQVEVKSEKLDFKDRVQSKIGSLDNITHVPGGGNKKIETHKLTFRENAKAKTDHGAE
Briefly: sandwich ELISA, 423 mAb capture, dGAE species titrated, scAb detection at 10 ug/ml [D00041 Figure 34O]. The procedure:
(§2) For preparing the aggregates, 10 μl 10 mM DTT was added to 1000 μl 100 μM dGAE and agitated with/without LMTM (1:5 ratio) at 700 rpm for 24 h at 37° C. Following overnight agitation, one third of each sample was kept aside as ‘total’ and the rest was spun down at 16000×g for 30 min and separated into ‘supernatant’ and ‘pellet’. The pellet was then resuspended in half the original volume for further experiments. […] Doubling dilutions of dGAE aggregate ‘total’, ‘supernatant’ and ‘pellet’ samples at 10 μg/ml starting concentration were added to designated wells in doubling dilutions in 1×PBS. dGAE monomer (non-aggregated) was included as assay control. All double dilutions were done in final volumes of 100 μl. This was left to incubate on lab bench for 1 h followed by the addition of test scAbs at 10 μg/ml.

For test [8], the target named is T4, DGAE + LMT Agg. The test can be described thus: sandwich ELISA, 423 mAb capture, dGAE species titrated, scAb detection at 10 ug/ml [D00039 Figure 34F]. On the procedure: as §2

Where a chain is given by its changes, count along the chain named. Where two headings read alike, the source gives them in different places.

T1 sequence (P10636 other isoform, or with tags, fused parts or gaps limits assumed): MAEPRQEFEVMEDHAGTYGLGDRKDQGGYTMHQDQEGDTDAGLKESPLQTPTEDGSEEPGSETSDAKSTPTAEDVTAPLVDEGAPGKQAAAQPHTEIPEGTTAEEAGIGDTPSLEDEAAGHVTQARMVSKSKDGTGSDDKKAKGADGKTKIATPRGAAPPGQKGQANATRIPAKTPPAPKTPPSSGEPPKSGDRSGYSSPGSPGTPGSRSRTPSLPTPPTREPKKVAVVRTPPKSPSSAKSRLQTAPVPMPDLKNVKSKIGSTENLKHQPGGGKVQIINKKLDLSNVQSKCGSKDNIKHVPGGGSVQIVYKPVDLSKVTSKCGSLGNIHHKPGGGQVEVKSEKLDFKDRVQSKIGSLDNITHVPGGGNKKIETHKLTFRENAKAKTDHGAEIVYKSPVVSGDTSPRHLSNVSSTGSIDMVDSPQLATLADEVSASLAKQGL

B1: CA4 scAb (scFv)
scFv: QVQLQESGPSLVKPSQTLSLTCTVSGFSLTSYSVYWVRQAPGQALEWISIMYASGRVDYNPALKSRLSITRDTSKSQFSLSLSSVTTEDTAVYYCTRGIENWGPGLLVTVSSEGKSSGASGESKVDDDIQVTQSPSSLSASLTERVSITCRTSQSVNNYLSWYQQKPGQAPKLLIYYATRLYTDVPSRFSGSGSGTDYTLTITSLEADDTATYYCLQYDSTPLAFGGGTNVEIK
notes: scAb (scFv-HuCk-His)
B1: the LoD in test [1] was determined as 6 ng/mL; in test [2], 0.37 ng/mL.

B2: 412E10 scAb (scFv)
scFv: QVQLQESGPSLVKPSQTLSLTCTVSGFSVISDSVAWVRQAPGKVPEWLGASGSSGNKYYNPALKSRLSITRDTSKSQVSLSLSSVTTEDTAVYYCARGIIAGVDVWGRGLLVTVSSEGKSSGASGESKVDDQAVLTQPSSVSGSLGQRVSITCSGSSSNVGYGNYVGWYQQVPGSAPKLLIYGTAIRASGVPDRFSGSRSGDTATLTITSLQAEDEADYYCASYQSNYAFFGSGTRLTVLG
notes: scAb (scFv-HuCk-His)
Regarding B2, the results for the LoD in test [1] and in test [2] were 20 ng/mL and 0.37 ng/mL, respectively.

B3: CC7 mAb (antibody, mouse IgG2a, V domains shown)
VH: QVQLQESGPSLVKPSQTLSLTCTVSGFSLTSNAVIWVRQAPGKAPEWVALIDVDGDAAYDPALKSRLSITRDTSKSQVSLSLRSVTTEDTAVYYCARDYGSWGYVSDIDYWGPGLLVTVSS
VL: RVVRTQPSSVSGSLGQRVSITCSGSYITGSSVGWFQQVPGSGLKTVIYDNNDRPSGVPDRFSGSKSGDTATLTISSLQAEDEADYYCASYDTSNIGLFGSGTRLTVLG
notes: also called CC7 antibody
Turning to B3, the binding result in test [3] and in test [4] was “no binding (tested: 20 µg brain protein)” throughout.

B4: CB3 scAb (scFv)
scFv: QVQLQESGPSLVKPSQTLSLTCTVSGFSLSSVAVNWVRQAPGKVPEWLGGIISNGGTGYNPALKSRLSITRDTSKSQVSLALTHVTTEDTAVYYCGRGVEWEGSMDYLGPGLLVTVSSEGKSSGSGSETKVDDQSVLTQPSSVSGFLGQRVTITCSGSSSNVGAGSYVGWYQQVPGSGLRILIYGATKRASGLPDRFSGSRSGNTATLTISSLQAEDEADYYCVSYQTDFTLVFGSGTRLTVLG
notes: scAb (scFv-HuCk-His)
As usually defined, the EC50 (read off the curve) is the concentration giving half of the maximal effect. Regarding B4, in test [5], the concentration giving a half-maximal response (EC50 (read off the curve)) is roughly 0.1 µg/mL.

B5: CB7 mAb (antibody, mouse IgG2a, V domains shown)
VH: QVQLQESGPSLVKPSQTLSLTCTVSGFSLTNYRVGWVRQAPGKALEWVSNIRSGGTTWYNPALKSRLSITADTSKSQVSLSLSSVTTEDTAVYYCARDSSGDLYAYDYWGPGLLVTVSS
VL: QAVLTQPSSVSRSLGQSVSMTCSGSSSNVGYGNYMAWFQQVPGSAPKLLIYGATSRASGVPDRFSGSRSGNTATLTISSLQAEDEADYYCASYDSTSGGVFGSGTRLTVLG
notes: also called CB7 antibody
For the molecule B5, the binding result in test [3] and in test [4] was “no binding (tested: 20 µg brain protein)” in each case.

B6: 412G11 (scFv)
scAb: QVRLQESGPSLVKPSQTLSLTCTVSGFSLTSYALGWVRQAPGRAPEWIGNIWRGGRIEYNPALKSRLSITRDTSKSQVSLSLSSVTTEDTAVYYCSRSGGDWGPGLLVTVSSEGKSSGASGESKVDDQAVLTQPSSVSGSLGQRVSITCSGSSSNVGYGNYVGWYQQVPGSAPKLLIYGATSRASGVPDRFSGSRSENTATLTISSLQAEDEADYYCASYDRSESVVFGSGTRLTVLG
Consider B6, for which, in test [6], the “EC50 (read off the curve)” value is roughly 6 µg/mL.

B7: CB7 scAb (scFv)
scFv: QVQLQESGPSLVKPSQTLSLTCTVSGFSLTNYRVGWVRQAPGKALEWVSNIRSGGTTWYNPALKSRLSITADTSKSQVSLSLSSVTTEDTAVYYCARDSSGDLYAYDYWGPGLLVTVSSEGKSSGASGESKVDDQAVLTQPSSVSRSLGQSVSMTCSGSSSNVGYGNYMAWFQQVPGSAPKLLIYGATSRASGVPDRFSGSRSGNTATLTISSLQAEDEADYYCASYDSTSGGVFGSGTRLTVLG
notes: scAb (scFv-HuCk-His)
In the case of B7, the LoD in test [1] was determined as 15 ng/mL; in test [2], 3.33 ng/mL.

B8: CE3 scAb (scFv)
scFv: QVRLQESGPSLVKPSQTLSVTCTVSGFSLISNAVGWVRQAPGKVPESLAGCSSDGKCYYNSALKSRLDITRDTSKNQISLSLSSVTTDDAAVYYCTRGYYPVYGYDYLGTIDYWGPGLLVTVSSEGKSSGASGESKVDDQAVLTQPSSVSGSLGQRVSITCSGSSSNVGRNDVAWFQQLPGSGLRTIIYGTTSRPSGIPDRFSGSKSGVTATLTIDSLQAEDEADYFCASGDSSAINDIFGSGTRLTVLG
notes: scAb (scFv-HuCk-His)
In the case of B8, the binding result with DGAE + LMT Agg [7] was “binds”.

B9: S1G10 scAb (scFv)
scFv: QVQLQESGPSLVKPSQTLSLTCTVSGFSLTSNSVGWVRQAPGKAPEWVAGIDTDGEEGYNPALNSRLSITRDTSKSQVSLSLSSVTSEDTAVYYCGRSYRADGLAYGYVQAIDYWGPGLLVTVSSEGKSSGASGESKVDDQAVLTQPSSMSGSLGQRVSITCSGSFIGISSVGWFQQLPGSGLRTIIVASDGRPSGVPDRFSMSKSGNTATLTISSLQAEDEADYFCGSSDRTQYTGVFGSGTRLTVLG
notes: scAb (scFv-HuCk-His)
With B9, the values for the LoD in test [1] and in test [2] were 2 ng/mL and 0.12 ng/mL, respectively.

B10: CA9 scAb (scFv)
scFv: B9 scFv with A101S, S148A, M150V
notes: scAb (scFv-HuCk-His)
Turning to B10, the binding result with DGAE + LMT Agg [8] was “binds”.

B11: S1G2 scAb (scFv)
scFv: B9 scFv with L144V, M150V, Q234P
notes: scAb (scFv-HuCk-His)
Molecule B11 showed a LoD in test [2] of 0.12 ng/mL.

B12: CC7 scAb (scFv)
scFv: QVQLQESGPSLVKPSQTLSLTCTVSGFSLTSNAVIWVRQAPGKAPEWVALIDVDGDAAYDPALKSRLSITRDTSKSQVSLSLRSVTTEDTAVYYCARDYGSWGYVSDIDYWGPGLLVTVSSEGKSSGASGESKVDDRVVRTQPSSVSGSLGQRVSITCSGSYITGSSVGWFQQVPGSGLKTVIYDNNDRPSGVPDRFSGSKSGDTATLTISSLQAEDEADYYCASYDTSNIGLFGSGTRLTVLG
notes: scAb (scFv-HuCk-His)
Take B12: the LoD is 6 ng/mL in test [1] and 3.33 ng/mL in test [2].
